{"source": "patent US20260139035A1", "about": "(NATIONAL UNIVERSITY CORPORATION KUMAMOTO UNIVERSITY, published 2026)", "binders": {"B1": {"name": "4-66 antibody (antibody, V domains shown)", "VH": "EVQLVESGGGLVQPGGSLRLSCAASGIIVSRNYMTWVRQAPGKGLEWVSVIYSGGTTYYADSVKGRFTTSRDDSKNTLYLQMNSLRGDDTAVYYCARDPPHRRGSYWGQGTLVTVSS", "VL": "DILMTQSPSSLSASVGDRVTITCQASQDINKYLNWYQQKPGKAPKLLIYDASNLETGVPSRFSGSGSGTDFSFTISSLQPEDVATYYCQQSDNLPPTFGQGTNVEIK"}}, "biological_target": "spike protein of SARS-CoV (SARS-CoV, UniProt P59594 14-1255)", "experiment": "cell-based or functional assay", "data": [{"binder": "B1", "values": [{"measurement": "IC50, neutralization", "value": 0.55, "unit": "µg/mL"}]}]}
